In publication PMC3300031 (Nucleic Acids Research, 2011):

Key:
SEC = target: the molecule itself; assay: SEC
AUC + SEC = target: the molecule itself; assay: AUC + SEC

Row | Protein | stoichiometry N (SEC) | stoichiometry N (AUC + SEC)
1 | Pf NurA ΔN26 dimeric interface mutant (first 26 residues deleted) (domain or fragment, Pyrococcus furiosus, UniProt Q8U1N8 27-451, looked up) EQIRNIINSWKPLPSPEKSSIYAVDGSRSVSRLSGTVIYFLSALAVGSGKQLRLSYANAIKSNYGTSDQIVRMQMETLENMLGYLAYRKLEGEKRAILMDGTLTGSLVRPPVYPEDIRSLNVMRALIGESDFENLLNEFLEKLRDHYRKVEEHLEKNGNYDSPILTDNVVEKLRKKYIDTKVIAYGSGKVKVKIPRKALGYSPRVIPIEVLESSRGKSVDELLQELDEEKVELYLGKDDIYDALHMTLSYIEYLYSIDKLLEVKNLAYIAKSFYTKTLARTLGVEIVDTALLDAVIRTLIGHEKEGYLEIEHAVVPPKWSFPDFLLSKFRNIEKLIDKGIHLAYVRFEQGDVIYMLQSTTNIEKILPLILHHKAGGYLRPLQLAHHGVKISYKEARHTLEALINALRNRDPALKIFVKYGRSPLE | 4 | –
2 | Pyrococcus furiosus NurA (Pf NurA), wild type (enzyme, UniProt Q8U1N8 1-451, looked up) MRLLSKQSIERITKILLDELENVRENEQIRNIINSWKPLPSPEKSSIYAVDGSRSVSRLSGTVIYFLSALAVGSGKQLRLSYANAIKSNYGTSDQIVRMQMETLENMLGYLAYRKLEGEKRAILMDGTLTGSLVRPPVYPEDIRSLNVMRALIGESDFENLLNEFLEKLRDHYRKVEEHLEKNGNYDSPILTDNVVEKLRKKYIDTKVIAYGSGKVKVKIPRKALGYSPRVIPIEVLESSRGKSVDELLQELDEEKVELYLGKDDIYDALHMTLSYIEYLYSIDKLLEVKNLAYIAKSFYTKTLARTLGVEIVDTALLDAVIRTLIGHEKEGYLEIEHAVVPPKWSFPDFLLSKFRNIEKLIDKGIHLAYVRFEQGDVIYMLQSTTNIEKILPLILHHKAGGYLRPLQLAHHGVKISYKEARHTLEALINALRNRDPALKIFVKYGRSPLE | – | 2
3 | Pf NurA R11A/I12E/S60Y dimeric interface mutant (enzyme, Pyrococcus furiosus) MRLLSKQSIEAETKILLDELENVRENEQIRNIINSWKPLPSPEKSSIYAVDGSRSVSRLYGTVIYFLSALAVGSGKQLRLSYANAIKSNYGTSDQIVRMQMETLENMLGYLAYRKLEGEKRAILMDGTLTGSLVRPPVYPEDIRSLNVMRALIGESDFENLLNEFLEKLRDHYRKVEEHLEKNGNYDSPILTDNVVEKLRKKYIDTKVIAYGSGKVKVKIPRKALGYSPRVIPIEVLESSRGKSVDELLQELDEEKVELYLGKDDIYDALHMTLSYIEYLYSIDKLLEVKNLAYIAKSFYTKTLARTLGVEIVDTALLDAVIRTLIGHEKEGYLEIEHAVVPPKWSFPDFLLSKFRNIEKLIDKGIHLAYVRFEQGDVIYMLQSTTNIEKILPLILHHKAGGYLRPLQLAHHGVKISYKEARHTLEALINALRNRDPALKIFVKYGRSPLE | ~2 | –
